Measured values as given in patent publication US20200317807A1.
One block for each binder: values may come before it.

Tests used:
mouse CD70 (mouse) = mouse CD70 (mouse) (UniProt O55237); assay: cell-based or functional assay
CD70 (human) = target: T1, CD70 (human) (UniProt P32970); assay: cell-based or functional assay
T1 sequence: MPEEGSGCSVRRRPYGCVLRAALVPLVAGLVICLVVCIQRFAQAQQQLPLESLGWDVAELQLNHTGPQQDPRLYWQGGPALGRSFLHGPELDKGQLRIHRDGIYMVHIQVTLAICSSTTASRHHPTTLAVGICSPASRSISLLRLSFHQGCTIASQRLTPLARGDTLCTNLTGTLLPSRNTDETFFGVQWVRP

UniProt O55237, sequence (O55237 whole entry): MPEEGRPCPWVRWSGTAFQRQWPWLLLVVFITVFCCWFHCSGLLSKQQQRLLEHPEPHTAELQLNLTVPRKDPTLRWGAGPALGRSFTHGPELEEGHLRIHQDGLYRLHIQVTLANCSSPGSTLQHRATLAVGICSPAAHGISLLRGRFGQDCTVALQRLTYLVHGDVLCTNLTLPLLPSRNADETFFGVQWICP

IFN-γ (pg/ml), mouse T cells/mCD27-CD3ζ CAR co-cultured with B16/mCD70 (mouse CD70 (mouse)): 642000 pg/mL
B1: mCD27-CD3ζ CAR (full-length mouse CD27 and a mouse CD3ζ T cell intracellular signaling domain) (receptor)
chain: PNSCPDKHYWTGGGLCCRMCEPGTFFVKDCEQDRTAAQCDPCIPGTSFSPDYHTRPHCESCRHCNSGFLIRNCTVTANAECSCSKNWQCRDQECTECDPPLNPALTRQPSETPSPQPPPTHLPHGTEKPSWPLHRQLPNSTVYSQRSSHRPLCSSDCIRIFVTFSSMFLIFVLGAILFFHQRRNHGPNEDRQAVPEEPCPYSCPREEEGSAIPIQEDYRKPEPAFYPRAKFSRSAETAANLQDPNQLYNELNLGRREEYDVLEKKRARDPEMGGKQQRRRNPQEGVYNALQKDKMAEAYSEIGTKGERRRGKGHDGLYQGLSTATKDTYDALHMQTLAPR

IFN-γ (pg/ml), co-culture with 624/CD70 (CD70 Positive) (CD70 (human)): 6480 pg/mL
IFN-γ (pg/ml), co-culture with RCC 1581 (CD70 Pos) (CD70 (human)): 11800 pg/mL
IFN-γ (pg/ml), co-culture with RCC 2095R (CD70 Pos) (CD70 (human)): 5820 pg/mL
IFN-γ (pg/ml), co-culture with RCC 2219R (CD70 Pos) (CD70 (human)): 12100 pg/mL
IFN-γ (pg/ml), co-culture with RCC 2245R (CD70 Pos) (CD70 (human)): 9110 pg/mL
IFN-γ (pg/ml), co-culture with RCC 2246R (CD70 Pos) (CD70 (human)): 8220 pg/mL
IFN-γ (pg/ml), co-culture with RCC 2261R (CD70 Pos) (CD70 (human)): 7270 pg/mL
IFN-γ (pg/ml), co-culture with RCC 2361R (CD70 Pos) (CD70 (human)): 2260 pg/mL
IFN-γ (pg/ml), co-culture with RCC 2654R (CD70 Pos) (CD70 (human)): 7890 pg/mL
IFN-γ (pg/ml), co-culture with RCC 2657R (CD70 Pos) (CD70 (human)): 3510 pg/mL
B2: full length (f) CD27-CD3ζ CAR (full-length human CD27 and a human CD3ζ T cell intracellular signaling domain) (receptor)
chain: ATPAPKSCPERHYWAQGKLCCQMCEPGTFLVKDCDQHRKAAQCDPCIPGVSFSPDHHTRPHCESCRHCNSGLLVRNCTITANAECACRNGWQCRDKECTECDPLPNPSLTARSSQALSPHPQPTHLPYVSEMLEARTAGHMQTLADFRQLPARTLSTHWPPQRSLCSSDFIRILVIFSGMFLVFTLAGALFLHQRRKYRSNKGESPVEPAEPCRYSCPREEEGSTIPIQEDYRKPEPACSPRVKFSRSADAPAYQQGQNQLYNELNLGRREEYDVLDKRRGRDPEMGGKPRRKNPQEGLYNELQKDKMAEAYSEIGMKGERRRGKGHDGLYQGLSTATKDTYDALHMQALPPR
